B1: VH:VL chains; a variant is named by its letters at X, in order (parent)
chain 1: QVQLVQSGAEVKKPGASVKVSCKASGYTFTDYXMHWVRQAPGQGLEWMGXVNPNXXXTTYNQKFEGRVTMTTDTSTSTAYMELRSLRSDDTAVYYCARXNXLDXWGQGTTVTVSS
chain 2: DIQMTQSPSSLSASVGDRVTITCSVSSSVSSIYLHWYQQKPGKAPKLLIYSTSNLASGVPSRFSGSGSGTDFTLTISSLQPEDFATYYCQVYSGYPLTFGGGTKVEIK

Variants of: B1
Experiment: yeast display scFab, FACS + sequencing
Summary of the method: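 Heavy-chain CDR mutant scFab yeast surface library, FACS-sorted after labelling with biotinylated ovalbumin (260 μg/mL in PBSB, 3 h, room temperature) or soluble membrane proteins (130 μg/mL, 20 min on ice), plus anti-Myc. Gates collected the top 25% and bottom 10% of binders, and samples from two replicates were deep sequenced. Non-specific binding call: a sequence was positive if found in ≥3 of 4 positive samples (membrane protein and ovalbumin pooled) and no negatives, and negative by the converse rule.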

Variant	non-specific binding call
VARADSGV	no binding
YAGRGSAS	no binding
VAGRSFGS	binds
YARGADGS	no binding
DAGTGSWD	no binding
FAGRGVGD	binds
FAGGGDWV	no binding
YAKRDAGD	no binding
VAKEGAWV	binds
DARENAGY	no binding
FAGRGALD	binds
YAGRGDLV	no binding
YAGRGDLD	no binding
YAGRGDLA	no binding
DAGGGDWD	no binding
DAGGGDWV	no binding
DAGRGAVS	no binding
DAKEGSSA	no binding
YAGRADVV	no binding
YAKRDALA	no binding
FAGTSVGS	binds
FAGRDAVV	binds
FAGRDVGV	binds
YARAGSVS	binds
DAGGGYGV	no binding

Variant	non-specific binding call
YAGRGDSA	no binding
AARADSSA	no binding
DAGTGDGV	no binding
SAGRGDGS	no binding
YAREDDGA	no binding
YAGRGASA	no binding
DAKEGAAA	no binding
DAGKGAVY	no binding
DAGKGAVV	no binding
DAGTGSGA	no binding
VAKENAVA	no binding
AARADDWV	no binding
AARADDWD	no binding
YARETDGA	no binding
VAGTDDWV	no binding
YAKEGDGV	no binding
VAGTSDGA	no binding
DARETFLD	no binding
AAGRSDLV chain 1 R67H	no binding
DAGTAFSS	binds
DARADSGV	no binding
DAGKGAGD	no binding
VAGTGDVY	no binding
VAGTGDVF	no binding
VAGTGDVA	no binding

Variant	non-specific binding call
YAKGDYSV	no binding
AAGRGFLD	no binding
YAGRAAWD	binds
YAGRTAGV	binds
VARETDVA	no binding
YAKADSGA	binds
YAGKDDWV	no binding
YAGTGDLV	no binding
YAGRGFGF	binds
YAGRGFGA	binds
YAGKTAWS	binds
DAGKSDWY	no binding
DAGTDAGD	no binding
VAGKGVLD	binds
VAGTGSAD	no binding
SAREGDAV	no binding
YAGKTSAD	binds
YAGKGFGA	binds
YARADSLD	no binding
FAKAGFVA	binds
YAGGGDWA	no binding
SAGTGSWD	no binding
DAGGGDVA	no binding
DAGGGDVV	no binding
YARETAGV	binds

Variant	non-specific binding call
AAKRGSWV	no binding
YARETDVV	no binding
YAKADYSS	binds
VAGTGDGY	no binding
VAGTGDGV	no binding
VAGTGDGA	no binding
VAGKGAGD	no binding
SAREGDWV	no binding
AARADAGA	no binding
DAGRGDGF	no binding
DAGRGDGY	no binding
AARADSAD	no binding
YARADDAS	no binding
DAKEGDAV	no binding
DAKEGDAD	no binding
VAGTDAGD	no binding
VAGTDAGA	no binding
FAGGGDGD	no binding
FARENFLA chain 1 V51A	binds
FAGRGSAD	binds
YAGKGAWV	binds
YAGTGFWV	binds
VAGTGSLD	no binding
VAGRGVGD	binds
YAGKSAGD	no binding

Variant	non-specific binding call
DAKEGDGV	no binding
YARADDGD	no binding
YARADDGS	no binding
VAKADALD	no binding
DAKRDSAS	no binding
AARADDSV	no binding
AARADDSA	no binding
DAKTDDGV	no binding
FARGASGV	binds
FAKTDAGF chain 1 G108D	binds
VAKKNASF	no binding
VAKADDWF	no binding
YAREGSGA	binds
AARADSWV	no binding
SAREGDLA	no binding
YAGRSFGS	binds
YAGRGDWF	no binding
YAGRGDVY	no binding
YAGRGDVS	no binding
YAGRGDVD	no binding
YAGRGDVF	no binding
FARETFGV	binds
VAREGDLA	no binding
VAGTGAVV	no binding
FAGRSDWV chain 1 R67H	no binding

Variant	non-specific binding call
AAGGNAWS chain 1 G66S	no binding
SAGRGDWD	no binding
AARADDGS	no binding
AARADDGV	no binding
YAGKNAVV	no binding
YAREAALS	binds
FAKEGDGD	no binding
FAGGGDLV	no binding
FAGGSFAS	binds
SAKRDSAS	no binding
YAKRGSWA	binds
FAGTGSWD	no binding
VAGTGSSA	no binding
VAGTGSSV	no binding
VAGTGSSD	no binding
SAGRGVGS	binds
YARAGYAV	binds
FAGRGSSD	binds
VAGTGDAA	no binding
AAGRAYGA	binds
FAKRGAWS	binds
AARADSLS	no binding
AARADDAV	no binding
AARADDAA	no binding
DAGRSDLV chain 1 R67H	no binding

Variant	non-specific binding call
YAGRGDGA	no binding
YARADSSV	no binding
YARADSSD	no binding
SAGRGFGF	binds
SAGRGYGD	binds
SARADSGV	no binding
YAGRGVGD	binds
YARADAAA	no binding
DARADSLV	no binding
FAGGGFAV	binds
FAGGGDVY	no binding
SAGKDDLA	no binding
FAKEGFWD	binds
DAKEGDLV	no binding
VAGTGDLY	no binding
VAGTGDLA	no binding
DAGTGAGD	no binding
VAGTGDWA	no binding
VAGTGDWD	no binding
VAGTGDWF	no binding
VAGTGDWV	no binding
VAGTGDWY	no binding
AARADFGV	no binding
SAREGSSA	no binding
YAGRGDAD	no binding

Variant	non-specific binding call
YAGRGDAS	no binding
YARADDSA	no binding
YARADSGD	no binding
DAGKGALF	no binding
SAREGALD	no binding
VAGRGSAA	binds
YAGGTSSD	no binding
DAKENAGD	no binding
DAGKGSVD	no binding
DAKKNASF	no binding
SAGRGSAA	binds
AARETVGA	binds
DAKEGAGD	no binding
SAREGYSV	binds
VAGTGASD	no binding
FAGRGYSD	binds
VAREDDWA	no binding
YAGTGVVD	binds
YAGTGFVD	binds
FARAGDWV	binds
YARADDVA	no binding
YARADDVF	no binding
AARADDVA	no binding
AARADDVD	no binding
AARADDVY	no binding

Variant	non-specific binding call
DAGGGYSV	no binding
DAKENDVA	no binding
DAKENDVF	no binding
AAKEGALV	no binding
VAREDDLS	no binding
DAKEGDVV	no binding
DAKEGSLD	no binding
VAGRSDLV chain 1 R67H	no binding
FARAAALD	binds
YAGTGAVA	no binding
VARAADAD	no binding
YAKGDDAS	no binding
DAGGGSSS	no binding
DAGGGSSD	no binding
DAKENAVY	no binding
AARADAVY	no binding
AARADAVV	no binding
AARADAVA	no binding
VAGTGFWV	binds
FAGRAAWA	binds
SAGRSDLV chain 1 R67H	no binding
AARADSGD	no binding
AARADSGY	no binding
YAGRGVVD	binds
VAKRDSAS	no binding
